{
  "source": "the Human Domainome abundance scans (Beltran et al. 2025)",
  "parents": {"B1": {"name": "Zinc finger homeobox protein 3, residues 2643 to 2698; numbered along this chain, Q15911 (parent)", "chain": "RLRTTITPEQLEILYQKYLLDSNPTRKMLDHIAHEVGLKKRVVQVWFQNTRARERK"}},
  "note": "± gives the uncertainty stated by the source.",
  "data": [
    {"variants_of": "B1", "assay": "abundance fitness (aPCA) (normalised: wild type 0, dead -1); higher = more abundant; growth selection in yeast, the domain comes from the species named", "details": "Homo sapiens", "values": [
      {"variant": "CLRTTITPEQLEILYQKYLLDSNPTRKMLDHIAHEVGLKKRVVQVWFQNTRARERK", "note": "[R1C]", "abundance fitness": "0.239 ± 0.16"},
      {"variant": "RLRGTITPEQLEILYQKYLLDSNPTRKMLDHIAHEVGLKKRVVQVWFQNTRARERK", "note": "[T4G]", "abundance fitness": "-0.002 ± 0.08"},
      {"variant": "RLRTTITPEQLEILYQKYLLDSNPTRKMLDHIAHEVGLKKRVVQVWFQNTRARERH", "note": "[K56H]", "abundance fitness": "-0.17 ± 0.4"},
      {"variant": "RLRTTITPEQLEIGYQKYLLDSNPTRKMLDHIAHEVGLKKRVVQVWFQNTRARERK", "note": "[L14G]", "abundance fitness": "-0.956 ± 0.086"},
      {"variant": "RLRTTITPEQLEILYQKYLLDSNITRKMLDHIAHEVGLKKRVVQVWFQNTRARERK", "note": "[P24I]", "abundance fitness": "-0.747 ± 0.17"},
      {"variant": "RLRTTITPEQLEILYQKYLLDSNLTRKMLDHIAHEVGLKKRVVQVWFQNTRARERK", "note": "[P24L]", "abundance fitness": "-0.79 ± 0.11"},
      {"variant": "RLRTTITPEQLEILYQKYLLDSNDTRKMLDHIAHEVGLKKRVVQVWFQNTRARERK", "note": "[P24D]", "abundance fitness": "-0.634 ± 0.13"},
      {"variant": "RLRTTITYEQLEILYQKYLLDSNPTRKMLDHIAHEVGLKKRVVQVWFQNTRARERK", "note": "[P8Y]", "abundance fitness": "0.116 ± 0.14"},
      {"variant": "RLRTTITPEQLEKLYQKYLLDSNPTRKMLDHIAHEVGLKKRVVQVWFQNTRARERK", "note": "[I13K]", "abundance fitness": "-0.096 ± 0.12"},
      {"variant": "RLRTTITPEQLEWLYQKYLLDSNPTRKMLDHIAHEVGLKKRVVQVWFQNTRARERK", "note": "[I13W]", "abundance fitness": "-0.172 ± 0.091"},
      {"variant": "RLRTTITPEQLEILYQKYLLDSNPTRKMLDHIAHEVGLKKRVVQVWFQNTVARERK", "note": "[R51V]", "abundance fitness": "-0.155 ± 0.076"},
      {"variant": "RLRTTITPEQLEILYQKYLLDSNPTRKMLDHIAHEVGLKKRVVQVWFQNTDARERK", "note": "[R51D]", "abundance fitness": "-0.474 ± 0.14"},
      {"variant": "RLRTTITPEQLEILYQKYLLDSNPTRKMHDHIAHEVGLKKRVVQVWFQNTRARERK", "note": "[L29H]", "abundance fitness": "-0.766 ± 0.2"},
      {"variant": "RLRTTITPEQLEILYQKYLLDSNPTRKMQDHIAHEVGLKKRVVQVWFQNTRARERK", "note": "[L29Q]", "abundance fitness": "-0.254 ± 0.12"},
      {"variant": "RLRTTITPIQLEILYQKYLLDSNPTRKMLDHIAHEVGLKKRVVQVWFQNTRARERK", "note": "[E9I]", "abundance fitness": "-0.241 ± 0.078"},
      {"variant": "RLRTTITPEQLEILYQKYLLDSNPTRIMLDHIAHEVGLKKRVVQVWFQNTRARERK", "note": "[K27I]", "abundance fitness": "-0.028 ± 0.14"},
      {"variant": "RLRTTITPEQLEILYQKYLLDSNPTRKMLDHIAYEVGLKKRVVQVWFQNTRARERK", "note": "[H34Y]", "abundance fitness": "-0.012 ± 0.12"},
      {"variant": "RLRTTNTPEQLEILYQKYLLDSNPTRKMLDHIAHEVGLKKRVVQVWFQNTRARERK", "note": "[I6N]", "abundance fitness": "-0.702 ± 0.091"},
      {"variant": "RLRTTITPEQLEILYQKYLLDSNPTRKMLDHIAHEVILKKRVVQVWFQNTRARERK", "note": "[G37I]", "abundance fitness": "-0.891 ± 0.17"},
      {"variant": "RLRTTITPEQLEILYQKYLVDSNPTRKMLDHIAHEVGLKKRVVQVWFQNTRARERK", "note": "[L20V]", "abundance fitness": "0.002 ± 0.094"},
      {"variant": "RLRTTITPEQLEILYQKYLPDSNPTRKMLDHIAHEVGLKKRVVQVWFQNTRARERK", "note": "[L20P]", "abundance fitness": "-1.08 ± 0.17"},
      {"variant": "RLRTTITPEQLEILYQKYLLDSNPTRKMLDHIAHEVGLKKRVVQVFFQNTRARERK", "note": "[W46F]", "abundance fitness": "-0.462 ± 0.3"},
      {"variant": "RLRTTITPEQLEILYQKYLLDSNPTRKMLDHIAHEVGLKKRVVQVMFQNTRARERK", "note": "[W46M]", "abundance fitness": "-0.956 ± 0.2"},
      {"variant": "RLRTTITPEQLEILYQKYLLDSNPCRKMLDHIAHEVGLKKRVVQVWFQNTRARERK", "note": "[T25C]", "abundance fitness": "-0.191 ± 0.12"},
      {"variant": "RLRTTITPEQLEILYQKYLLDSNPTRKMLDHIAHEVGSKKRVVQVWFQNTRARERK", "note": "[L38S]", "abundance fitness": "-0.601 ± 0.099"},
      {"variant": "RLRTTITPEQLEILYQKYLLDSNPTRKMLWHIAHEVGLKKRVVQVWFQNTRARERK", "note": "[D30W]", "abundance fitness": "-0.442 ± 0.12"},
      {"variant": "RLRTTITPEQLEILYQKYLLDSNPTRKMLIHIAHEVGLKKRVVQVWFQNTRARERK", "note": "[D30I]", "abundance fitness": "-0.071 ± 0.14"},
      {"variant": "RLRTTITPEQLEILYQKYLLDSNPTRKMLDHIAHETGLKKRVVQVWFQNTRARERK", "note": "[V36T]", "abundance fitness": "0.053 ± 0.12"},
      {"variant": "RLRTTITPEQLEILYQKYLLDSNPTPKMLDHIAHEVGLKKRVVQVWFQNTRARERK", "note": "[R26P]", "abundance fitness": "0.35 ± 0.089"},
      {"variant": "RLRTTITPEQLEILYQKYLLDSNPTEKMLDHIAHEVGLKKRVVQVWFQNTRARERK", "note": "[R26E]", "abundance fitness": "0.419 ± 0.096"},
      {"variant": "RHRTTITPEQLEILYQKYLLDSNPTRKMLDHIAHEVGLKKRVVQVWFQNTRARERK", "note": "[L2H]", "abundance fitness": "-0.006 ± 0.2"},
      {"variant": "RLRTTITPEQLEILYQEYLLDSNPTRKMLDHIAHEVGLKKRVVQVWFQNTRARERK", "note": "[K17E]", "abundance fitness": "0.007 ± 0.12"},
      {"variant": "RLRTTITPEQLEILYQKYLLDSNPTRKMLDFIAHEVGLKKRVVQVWFQNTRARERK", "note": "[H31F]", "abundance fitness": "-0.068 ± 0.14"},
      {"variant": "RLRTTITPEQGEILYQKYLLDSNPTRKMLDHIAHEVGLKKRVVQVWFQNTRARERK", "note": "[L11G]", "abundance fitness": "-0.02 ± 0.072"},
      {"variant": "RLRTTITPEQPEILYQKYLLDSNPTRKMLDHIAHEVGLKKRVVQVWFQNTRARERK", "note": "[L11P]", "abundance fitness": "-0.494 ± 0.14"},
      {"variant": "RLRTTITPEQLEILYQKYLLDSNPTRKMLDHIAHEVGLKKRVVQSWFQNTRARERK", "note": "[V45S]", "abundance fitness": "-0.359 ± 0.097"},
      {"variant": "RLRTTITPEQLEILYQKYLLDSNPTRKMLDHIAHEVGLKKRVVQTWFQNTRARERK", "note": "[V45T]", "abundance fitness": "-0.24 ± 0.11"},
      {"variant": "RLRTTITPEQLEILYQKYLLDSNPTRKMLDHIAHEVGLKKRVVQVWFQNTRARGRK", "note": "[E54G]", "abundance fitness": "-0.305 ± 0.088"},
      {"variant": "RLRTTITPEQLEILYVKYLLDSNPTRKMLDHIAHEVGLKKRVVQVWFQNTRARERK", "note": "[Q16V]", "abundance fitness": "0.357 ± 0.08"},
      {"variant": "RLRTRITPEQLEILYQKYLLDSNPTRKMLDHIAHEVGLKKRVVQVWFQNTRARERK", "note": "[T5R]", "abundance fitness": "-0.498 ± 0.096"},
      {"variant": "RLRTPITPEQLEILYQKYLLDSNPTRKMLDHIAHEVGLKKRVVQVWFQNTRARERK", "note": "[T5P]", "abundance fitness": "0.176 ± 0.17"},
      {"variant": "RLRTCITPEQLEILYQKYLLDSNPTRKMLDHIAHEVGLKKRVVQVWFQNTRARERK", "note": "[T5C]", "abundance fitness": "-0.107 ± 0.14"},
      {"variant": "RLRTTITPEGLEILYQKYLLDSNPTRKMLDHIAHEVGLKKRVVQVWFQNTRARERK", "note": "[Q10G]", "abundance fitness": "-0.854 ± 0.094"},
      {"variant": "RLRTTITPEELEILYQKYLLDSNPTRKMLDHIAHEVGLKKRVVQVWFQNTRARERK", "note": "[Q10E]", "abundance fitness": "-0.516 ± 0.15"},
      {"variant": "RLRTTITPEQLEILYQKYLLDSNPTRKMLDHIAHEVGLKKRVVQVWFQATRARERK", "note": "[N49A]", "abundance fitness": "-0.2 ± 0.093"},
      {"variant": "RLRTTITPEQLEILYQKYLLDSNPTRKMLDHIAHEVGLKKRNVQVWFQNTRARERK", "note": "[V42N]", "abundance fitness": "-0.02 ± 0.14"},
      {"variant": "RLRTTITPEQLEILAQKYLLDSNPTRKMLDHIAHEVGLKKRVVQVWFQNTRARERK", "note": "[Y15A]", "abundance fitness": "-0.202 ± 0.096"}
    ]}
  ]
}
